Test: Peptide depletion (degradation or adsorption) during the experimental period, by HPLC and 125I-labeled peptide
Type: physicochemical
Conditions: HPLC and 125I-labeled peptide; concentrations above 0.1 )M

## dynorphin A: control peptide purchased from Peninsula Laboratories
  depletion (degradation or adsorption) during the experimental period: No significant depletion

Reference: patent publication EP0459978B1, “CLASS I MHC MODULATION OF SURFACE RECEPTOR ACTIVITY” (THE REGENTS OF THE UNIVERSITY OF CALIFORNIA, priority 1989, dated 1997)
